Assay results published in US20110206724A1.

Tests used:
Test in all cases: capture ELISA on E. coli lysate
[1] = biological target: WT-R-IM2(74) hybrid WHcAg construct (woodchuck hepatitis virus; influenza A virus)
[2] = biological target: HyW-IM2(-)78 hybrid WHcAg particle (woodchuck hepatitis virus; influenza A virus)
[3] = biological target: HyW-IM2(74) hybrid WHcAg construct (woodchuck hepatitis virus; influenza A virus)
[4] = biological target: 150C-IM2(74) hybrid WHcAg construct (woodchuck hepatitis virus; influenza A virus)

mAb 14C2, anti-influenza M2e (antibody)
relative binding score (Accessability) (relative score) [1]: 2 | relative binding score (Accessability) (relative score) [2]: 3 | relative binding score (Accessability) (relative score) [3]: 3 | relative binding score (Accessability) (relative score) [4]: 3
